Assays:
[1] = target: T1, ZNF524 ZF1-4 minimal domain (human, UniProt Q96C55 110-223); experiment: ITC; annealed in 100 mM NaCl; ITC: 20 mM Tris-HCl pH 7.5, 150 mM NaCl, 20 C; pull-down: 50 mM Tris-HCl pH 7.5, 150 mM NaCl, 0.5% IGEPAL, 5 mM MgCl2, 1 mM DTT, salmon sperm DNA, 4 C; conditions: protein: recombinant, tags: none (GST removed by TEV), single strand
T1 sequence: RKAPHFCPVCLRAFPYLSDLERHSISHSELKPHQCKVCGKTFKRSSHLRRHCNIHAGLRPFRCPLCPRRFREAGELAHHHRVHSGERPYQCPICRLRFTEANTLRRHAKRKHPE

[2] = target: T1, ZNF524 ZF1-4 minimal domain; experiment: ITC; ITC: 20 mM Tris-HCl pH 7.5, 150 mM NaCl, 20 C; pull-down: 50 mM Tris-HCl pH 7.5, 150 mM NaCl, 0.5% IGEPAL, 5 mM MgCl2, 1 mM DTT, salmon sperm DNA, 4 C; conditions: protein: recombinant; tags: none (GST removed by TEV); blunt
ZNF524 ZF1-4 H156A = target: T2, ZNF524 ZF1-4 H156A (human, UniProt Q96C55 110-223, H156A); experiment: as above; conditions: protein: recombinant; tags: none (GST removed by TEV); blunt
T2 sequence: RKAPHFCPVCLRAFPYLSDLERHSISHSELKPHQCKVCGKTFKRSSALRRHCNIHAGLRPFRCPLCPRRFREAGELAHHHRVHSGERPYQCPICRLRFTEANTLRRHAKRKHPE

ZNF524 ZF2M = target: T3, ZNF524 ZF2M (human, UniProt Q96C55 110-223, R153A;S155A;H156A;R159A); experiment: as above; conditions: protein: recombinant; tags: none (GST removed by TEV); blunt
T3 sequence: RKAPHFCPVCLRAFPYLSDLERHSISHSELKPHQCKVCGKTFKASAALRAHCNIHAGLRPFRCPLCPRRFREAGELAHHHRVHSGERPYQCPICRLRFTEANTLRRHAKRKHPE

ZNF524 ZF1-4 R159A = target: T4, ZNF524 ZF1-4 R159A (human, UniProt Q96C55 110-223, R159A); experiment: as above; conditions: protein: recombinant; tags: none (GST removed by TEV); blunt
T4 sequence: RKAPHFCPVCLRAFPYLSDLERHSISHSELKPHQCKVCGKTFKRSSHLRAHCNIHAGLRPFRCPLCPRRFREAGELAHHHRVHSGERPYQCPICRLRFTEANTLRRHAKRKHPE

ZNF524 ZF2-3 = target: T5, ZNF524 ZF2-3 (human, UniProt Q96C55 138-196); experiment: as above; conditions: protein: recombinant; tags: none (GST removed by TEV); blunt
T5 sequence: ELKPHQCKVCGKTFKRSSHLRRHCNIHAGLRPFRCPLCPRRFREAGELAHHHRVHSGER

ZNF524 ZF1-4 E181A = target: T6, ZNF524 ZF1-4 E181A (human, UniProt Q96C55 110-223, E181A); experiment: as above; conditions: protein: recombinant; tags: none (GST removed by TEV); blunt
T6 sequence: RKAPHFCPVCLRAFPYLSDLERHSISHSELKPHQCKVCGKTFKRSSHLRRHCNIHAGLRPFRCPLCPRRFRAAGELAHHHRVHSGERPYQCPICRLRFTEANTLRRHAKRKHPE

ZNF524 ZF1-4 S155A = target: T7, ZNF524 ZF1-4 S155A (human, UniProt Q96C55 110-223, S155A); experiment: as above; conditions: protein: recombinant; tags: none (GST removed by TEV); blunt
T7 sequence: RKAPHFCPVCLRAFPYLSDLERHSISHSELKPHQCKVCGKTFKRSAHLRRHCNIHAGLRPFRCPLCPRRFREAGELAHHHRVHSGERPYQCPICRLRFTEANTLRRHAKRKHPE

ZNF524 ZF1-4 R215A = target: T8, ZNF524 ZF1-4 R215A (human, UniProt Q96C55 110-223, R215A); experiment: as above; conditions: protein: recombinant; tags: none (GST removed by TEV); blunt
T8 sequence: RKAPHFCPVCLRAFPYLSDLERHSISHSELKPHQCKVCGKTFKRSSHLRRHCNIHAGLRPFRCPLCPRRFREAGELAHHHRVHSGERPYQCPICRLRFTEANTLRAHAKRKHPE

ZNF524 ZF1-4 N211G = target: T9, ZNF524 ZF1-4 N211G (human, UniProt Q96C55 110-223, N211G); experiment: as above; conditions: protein: recombinant; tags: none (GST removed by TEV); blunt
T9 sequence: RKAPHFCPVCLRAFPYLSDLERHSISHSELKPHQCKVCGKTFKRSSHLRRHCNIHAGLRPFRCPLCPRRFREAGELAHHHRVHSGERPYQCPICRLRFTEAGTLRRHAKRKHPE

ZNF524 ZF3-4 = target: T10, ZNF524 ZF3-4 (human, UniProt Q96C55 166-223); experiment: as above; conditions: protein: recombinant; tags: none (GST removed by TEV); blunt
T10 sequence: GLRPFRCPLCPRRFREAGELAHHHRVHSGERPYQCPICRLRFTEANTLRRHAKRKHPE

ZNF524 ZF1-4 E184A = target: T11, ZNF524 ZF1-4 E184A (human, UniProt Q96C55 110-223, E184A); experiment: as above; conditions: protein: recombinant; tags: none (GST removed by TEV); blunt
T11 sequence: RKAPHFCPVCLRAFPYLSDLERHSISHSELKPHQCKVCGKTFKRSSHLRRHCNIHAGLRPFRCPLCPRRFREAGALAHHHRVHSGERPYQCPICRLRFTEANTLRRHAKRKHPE

ZNF524 ZF1-4 R131A = target: T12, ZNF524 ZF1-4 R131A (human, UniProt Q96C55 110-223, R131A); experiment: as above; conditions: protein: recombinant; tags: none (GST removed by TEV); blunt
T12 sequence: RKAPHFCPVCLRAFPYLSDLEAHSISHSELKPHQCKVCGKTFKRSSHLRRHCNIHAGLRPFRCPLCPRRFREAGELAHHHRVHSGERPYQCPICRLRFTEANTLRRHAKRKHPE

[3] = target: T13, ZNF524 ZF2-4 (ZF1 removed) (human, UniProt Q96C55 138-223); experiment: as above; conditions: protein: recombinant; tags: none (GST removed by TEV); blunt
T13 sequence: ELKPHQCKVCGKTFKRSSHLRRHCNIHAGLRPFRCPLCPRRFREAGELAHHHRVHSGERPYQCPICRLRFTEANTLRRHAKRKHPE

[4] = target: T14, ZNF524 ZF1-3 (ZF4 removed) (human, UniProt Q96C55 110-196); experiment: as above; conditions: protein: recombinant; tags: none (GST removed by TEV); blunt
T14 sequence: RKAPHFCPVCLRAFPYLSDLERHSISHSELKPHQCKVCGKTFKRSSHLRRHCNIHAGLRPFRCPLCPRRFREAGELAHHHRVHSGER

ZNF524 ZF1-4 R153A = target: T15, ZNF524 ZF1-4 R153A (human, UniProt Q96C55 110-223, R153A); experiment: as above; conditions: protein: recombinant; tags: none (GST removed by TEV); blunt
T15 sequence: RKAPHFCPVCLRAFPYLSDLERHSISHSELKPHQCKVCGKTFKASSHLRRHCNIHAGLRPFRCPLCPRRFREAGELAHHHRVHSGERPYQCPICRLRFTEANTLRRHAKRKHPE

ZNF524 ZF1-4 R180A = target: T16, ZNF524 ZF1-4 R180A (human, UniProt Q96C55 110-223, R180A); experiment: as above; conditions: protein: recombinant; tags: none (GST removed by TEV); blunt
T16 sequence: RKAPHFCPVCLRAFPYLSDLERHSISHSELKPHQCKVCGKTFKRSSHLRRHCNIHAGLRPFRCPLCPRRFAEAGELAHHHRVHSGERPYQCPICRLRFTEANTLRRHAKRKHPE

ZNF524 ZF1-4 (crystal) = target: T17, ZNF524 ZF1-4 (crystal) (human, UniProt Q96C55 107-237); experiment: crystal structure 2.40 A; Zn2+; ITC: 20 mM Tris-HCl pH 7.5, 150 mM NaCl, 20 C; pull-down: 50 mM Tris-HCl pH 7.5, 150 mM NaCl, 0.5% IGEPAL, 5 mM MgCl2, 1 mM DTT, salmon sperm DNA, 4 C; conditions: protein: recombinant; tags: none (GST removed by TEV); 5' overhang 1 nt at each end (A and T)
T17 sequence: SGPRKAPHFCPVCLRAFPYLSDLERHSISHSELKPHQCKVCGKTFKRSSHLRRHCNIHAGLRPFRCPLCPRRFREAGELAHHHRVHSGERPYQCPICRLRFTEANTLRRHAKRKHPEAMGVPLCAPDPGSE

## TTAGGGTTAGGGTTAGGGTTAGGG (ssDNA) [(TTAGGG)4-ssDNA]
[1]
  binding result: no binding

B1: TGAGGG duplex (dsDNA)
DNA 1: GGTGAGGGTGAG
DNA 2: CTCACCCTCACC
[2]
  Kd: 0.27 ± 0.11 µM

B2: GTGAGT duplex (dsDNA)
DNA 1: GTGTGAGTGTGA
DNA 2: TCACACTCACAC
[2]
  binding result: no binding

B3: TTGGGG duplex (dsDNA)
DNA 1: GGTTGGGGTTGG
DNA 2: CCAACCCCAACC
[2]
  Kd: 0.33 ± 0.13 µM

B4: TCAGGG duplex (dsDNA)
DNA 1: GGTCAGGGTCAG
DNA 2: CTGACCCTGACC
[2]
  Kd: 0.28 ± 0.04 µM

B5: TTAGGG 12-bp duplex (dsDNA)
DNA 1: GGTTAGGGTTAG
DNA 2: CTAACCCTAACC
ZNF524 ZF1-4 H156A
  Kd: 0.06 ± 0.04 µM
ZNF524 ZF2M
  binding result: no binding
ZNF524 ZF1-4 R159A
  Kd: 0.1 ± 0.09 µM
ZNF524 ZF2-3
  Kd: 1.21 ± 0.79 µM
ZNF524 ZF1-4 E181A
  Kd: 0.42 ± 0.09 µM
ZNF524 ZF1-4 S155A
  Kd: 0.25 ± 0.03 µM
ZNF524 ZF1-4 R215A
  Kd: 0.22 ± 0.06 µM
ZNF524 ZF1-4 N211G
  Kd: 0.17 ± 0.03 µM
ZNF524 ZF3-4
  binding result: no binding
ZNF524 ZF1-4 E184A
  Kd: 0.23 ± 0.13 µM
[2]
  Kd: 0.09 ± 0.02 µM
ZNF524 ZF1-4 R131A
  Kd: 0.34 ± 0.05 µM
[3]
  Kd: 0.62 ± 0.1 µM
[4]
  Kd: 0.59 ± 0.15 µM
ZNF524 ZF1-4 R153A
  Kd: 0.15 ± 0.04 µM
ZNF524 ZF1-4 R180A
  Kd: 0.41 ± 0.08 µM

B6: telomeric crystal duplex (dsDNA)
DNA 1: AGGGTTAGGGTTAGG
DNA 2: TCCTAACCCTAACCC
ZNF524 ZF1-4 (crystal)
  binding result: binds
